Results on seven molecules are retold here after patent publication US20220296726A1 (Bicycle, published 2022).

*1 amine or outer side, *2 acyl side, *3 side chain or, on linkers, in order; H or OH if unused. Bridges are numbered along the chain shown (N, C = ends). Where no end group is shown, it is not given here. [ ]: non-standard residue; d: D form. TATA = O=C(CC[*:1])N1CN(C(=O)CC[*:2])CN(C(=O)CC[*:3])C1; Phe(2-Me) = Cc1ccccc1C[C@H](N)C(=O)O

Assay [1] concerns the target T1, TREM2 on human iPSC macrophages (human, UniProt Q9NZC2 19-230).
T1 sequence (looked up): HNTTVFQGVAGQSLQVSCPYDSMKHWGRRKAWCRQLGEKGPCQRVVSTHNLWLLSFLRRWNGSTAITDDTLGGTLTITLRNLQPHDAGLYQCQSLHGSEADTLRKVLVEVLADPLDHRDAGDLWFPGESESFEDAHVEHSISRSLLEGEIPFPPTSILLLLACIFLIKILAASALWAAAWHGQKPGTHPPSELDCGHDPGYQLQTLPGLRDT
As to the kind of experiment: cell-based or functional assay.

The target of the next assay is T2, Cyno TREM2 (Cyno, UniProt A0A2K5UY34 49-161).
T2 construct: range 19-131; also called Cyno BLI
T2 sequence: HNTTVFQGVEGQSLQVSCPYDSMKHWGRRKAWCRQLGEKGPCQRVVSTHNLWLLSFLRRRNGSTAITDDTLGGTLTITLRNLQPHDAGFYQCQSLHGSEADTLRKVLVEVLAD
Kind of assay: BLI steady state, cyno TREM2 on sensor. The protocol:
(§1) Bio-layer interferometry was performed on an Octet RED384® system (Sartorius) at 25° C. in a buffer containing 50 mM HEPES (pH 7.5), 150 mM NaCl and 0.1% Tween. […] Reference wells containing no bicycle peptides and reference sensors loaded with an unrelated protein (His-tagged MLLT3a) were subjected to the same assay protocol and double reference subtraction was used for processing to account for non-specific binding. Traces were analysed using Octet Software (Version 11.0). Association and dissociation curves were globally fit and the response at equilibrium (Req) plotted against concentration to obtain steady-state KD values.

The target of assay [2] is T3, Human TREM2 extracellular domain (ECD), residues 19-131, C-terminally biotinylated, deglycosylated (human, UniProt Q9NZC2 19-131, C-terminally biotinylated; deglycosylated).
T3 construct: range 19-131; loaded on Superstreptavidin biosensors; also called triggering receptor expressed on myeloid cells 2; Human BLI (deglycosylated)
T3 sequence (looked up): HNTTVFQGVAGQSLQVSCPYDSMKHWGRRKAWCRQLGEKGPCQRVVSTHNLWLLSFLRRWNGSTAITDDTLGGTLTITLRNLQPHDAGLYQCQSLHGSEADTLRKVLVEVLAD
Kind of assay: Bio-layer interferometry (Octet), direct binding: biotinylated human TREM2 ECD loaded on Superstreptavidin biosensors, peptide in solution at 0.195 to 12.5 µM (7 traces). The method, then: as §1

For assay [3], the target named is T3, Human TREM2 extracellular domain (ECD), …. Kind of assay: BLI steady state, deglycosylated human TREM2 ECD on sensor. The method, then: as §1
Assay [4] addresses T4, Human TREM2 extracellular domain (ECD), residues 19-131, C-terminally biotinylated, glycosylated (human, UniProt Q9NZC2 19-131, C-terminally biotinylated; glycosylated).
T4 construct: range 19-131; loaded on Superstreptavidin biosensors; also called Human BLI glycosylated
T4 sequence (looked up): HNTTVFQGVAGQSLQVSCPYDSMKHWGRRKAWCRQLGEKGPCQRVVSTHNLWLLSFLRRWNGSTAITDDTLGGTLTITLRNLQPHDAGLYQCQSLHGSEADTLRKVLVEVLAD
As to the kind of experiment: BLI steady state, glycosylated human TREM2 ECD on sensor. The method, then: as §1

B1: BCY16054 (peptide)
peptide: ACSEYCFWPFYHCA
modifications: linker 2-6-13 via TATA
For orientation: Kd means a measure of binding affinity in units of concentration. A low value points to a tighter complex. For the molecule B1, the “pSYK (µM)” value in assay [1] turned out to be 10.7 µM. Also, the Kd was determined as 3300 nM in the assay with Cyno TREM2, 680 nM in assay [2] and 700 nM in assay [3].

B2: BCY20075 (peptide)
peptide: CSEYCFWPXYHC
modifications: N-terminal acetyl (Ac); CiSEYCiiFWP[44BPA]YHCiii; Ci, Cii, Ciii on TATA scaffold
Regarding B2, the results for the Kd in assay [3] and in assay [4] were 2400 nM and 1510 nM, respectively.

B3: BCY20073 (peptide)
peptide: CSEYCFWPXYHC
modifications: N-terminal acetyl (Ac); CiSEYCiiFWP[4FPhe]YHCiii; Ci, Cii, Ciii on TATA scaffold
In the case of B3, the Kd came out at 2320 nM in assay [3] and 2130 nM in assay [4].

B4: BCY20063 (peptide)
peptide: Ac-CSEYCF[Phe(2-Me)]PFYHC
modifications: linker 1-5-12 via TATA
B4: the Kd in assay [3] came out at 1300 nM; in assay [4], 1580 nM.

B5: BCY20060 (peptide)
peptide: CSEYCFXPFYHC
modifications: N-terminal acetyl (Ac); CiSEYCiiF[6MeTrp]PFYHCiii; Ci, Cii, Ciii on TATA scaffold
B5: the Kd in assay [3] came out at 1390 nM; in assay [4], 1110 nM.

B6: BCY20071 (peptide)
peptide: CSEYCFWPXYHC
modifications: N-terminal acetyl (Ac); CiSEYCiiFWP[2MePhe]YHCiii; Ci, Cii, Ciii on TATA scaffold
Consider B6, for which the Kd in assay [3] came out at 910 nM; in assay [4], 780 nM.

B7: BCY20066 (peptide)
peptide: CSEYCFWXFYHC
modifications: N-terminal acetyl (Ac); CiSEYCiiFW[44DFP]FYHCiii; Ci, Cii, Ciii on TATA scaffold
With B7, the figures for the Kd in assay [3] and in assay [4] were 1860 nM and 980 nM, respectively.
